Laboratory results from patent US20220332829A1 (NANJING SANHOME PHARMACEUTICAL, published 2022).

Experiments:
[1] = biological target: T1, human 2Ig-B7-H3-His protein (human, UniProt Q5ZPR3 29-463); assay: ELISA, plate coated with human 2Ig-B7-H3-His, detection with anti-human IgG HRP, OD450
T1 sequence: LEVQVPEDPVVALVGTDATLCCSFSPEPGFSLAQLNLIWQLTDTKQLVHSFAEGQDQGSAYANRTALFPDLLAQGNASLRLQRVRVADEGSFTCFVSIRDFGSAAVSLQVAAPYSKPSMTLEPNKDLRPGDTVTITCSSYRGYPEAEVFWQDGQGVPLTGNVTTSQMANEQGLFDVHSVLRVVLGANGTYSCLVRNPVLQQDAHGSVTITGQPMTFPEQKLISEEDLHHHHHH
Method: (§1) The binding activity of antibodies was analyzed by ELISA. 96-well ELISA plates were coated with human 4Ig-B7-H3-His protein or 2Ig-B7-H3-His protein (1 μg/well, prepared in Examples 1 and 2) and incubated overnight at 4° C. The plates were washed 3 times with 1×PBST and then blocked with 5% skim milk at 37° C. for 2 h. After washing 3 times with 1×PBST, the anti-B7-H3 antibody of the present disclosure was used as the primary antibody and added to the ELISA plates in 5-fold gradient dilution starting from 2 μg/mL with a total of 8 concentrations: 2,000 ng/mL, 400 ng/mL, 80 ng/mL, 16 ng/mL, 3.2 ng/mL, 0.64 ng/mL, 0.128 ng/mL and 0.0256 ng/mL respectively. The plates were incubated at 37° C. for 2 h with hBRCA84D as the positive control antibody. After washing 5 times with 1×PBST, Anti-Human IgG HRP (Jackson, 109-035-003, 1:5000) was used as the secondary antibody and incubated at 37° C. for 1 h. After washing 5 times with 1×PBST, color developing solution TMB was added to the plate, and microplate reader (Thermo, Multiskan FC) was used to read OD450 value after termination of the reaction. EC₅₀ was generated by GraphPad.

[2] = biological target: T2, Cynomolgus B7-H3-His (Sino Biological, Cat. No. 90806-C08H) (cynomolgus monkey); assay: ELISA, plate coated with cynomolgus B7-H3-His, detection with anti-human IgG HRP, OD450
T2 construct: Bought reagent; also called cynomolgus monkey B7-H3; monkey B7-H3
Method: The binding activity of antibodies was analyzed by protein based ELISA. Cynomolgus B7-H3-His (0.5 μg/well, Sino Biological, Cat. No. 90806-C08H) was coated on 96-well ELISA plates. The anti-B7-H3 antibodies of the present disclosure was used as the primary antibody and added to the ELISA plates in 5-fold gradient dilution starting from 2 μg/mL with a total of 8 concentrations: 2,000 ng/mL, 400 ng/mL, 80 ng/mL, 16 ng/mL, 3.2 ng/mL, 0.64 ng/mL, 0.128 ng/mL, and 0.0256 ng/mL respectively. The plates were incubated at 37° C. for 2 h with AB06.12-4P as the positive control antibody. Anti-Human IgG HRP (Jackson, 109-035-003, 1:10,000) was used as the secondary antibody. Color developing solution TMB (3,3′,5,5′-tetramethylbenzidine) was added to the plate, and microplate reader (Thermo, Multiskan FC) was used to read OD450 value after termination of the reaction. EC₅₀ was generated by GraphPad.

[3] = biological target: T3, B7-H3 on surface of tumor cell (786-0, MDA-MB-231, Raji-B7-H3 cells) (human, UniProt Q5ZPR3 29-534); assay: FACS on Raji-B7-H3 cells
T3 construct: whole, on cells; The making of Raji-B7-H3 cells is not described; also called B7-H3 on the surface of tumor cells; human B7-H3
T3 sequence (looked up): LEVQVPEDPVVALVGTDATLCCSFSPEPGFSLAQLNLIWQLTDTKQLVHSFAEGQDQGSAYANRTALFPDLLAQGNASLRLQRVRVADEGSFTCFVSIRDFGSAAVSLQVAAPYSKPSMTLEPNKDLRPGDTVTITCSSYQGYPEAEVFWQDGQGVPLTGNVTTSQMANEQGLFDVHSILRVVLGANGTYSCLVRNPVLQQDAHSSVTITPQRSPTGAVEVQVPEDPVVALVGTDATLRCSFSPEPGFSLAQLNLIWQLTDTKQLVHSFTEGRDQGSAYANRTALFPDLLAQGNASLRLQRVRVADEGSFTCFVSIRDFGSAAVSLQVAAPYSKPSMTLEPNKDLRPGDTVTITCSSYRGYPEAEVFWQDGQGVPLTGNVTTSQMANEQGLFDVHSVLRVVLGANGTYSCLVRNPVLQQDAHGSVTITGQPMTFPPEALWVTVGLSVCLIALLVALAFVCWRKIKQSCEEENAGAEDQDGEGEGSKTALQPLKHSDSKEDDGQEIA
Method: (§2) The binding activity of antibodies to B7-H3 on the surface of tumor cells was analyzed by FACS. Mean fluorescence intensity (MFI) and EC₅₀ detected by FACS indicate the binding activity of the antibody to cells. After 786-0 and MDA-MB-231 cells were digested, they were resuspended in 2% FBS-PBS solution and counted. After raji-B7-H3 cells were collected, they were resuspended in 2% FBS-PBS and counted. The above cells were plated in a cell plate with 1×10⁵ cells per well. The anti-B7-H3 antibody of the present disclosure was used as the primary antibody and added to cell plates in gradient dilution starting from 20 μg/mL with a total of 8 concentrations: 20,000 ng/mL, […], 2,000 ng/mL, 400 ng/mL, 80 ng/mL, 16 ng/mL, 3.2 ng/mL, and 0.64 ng/mL respectively. The plates were incubated at 4° C. for 1 h with hBRCA84D as the positive control antibody. PE-Anti-Human IgG (Biolegend, Cat. No. 409303, 1.25 μl/well) was used as the secondary antibody, washed, and detected for the fluorescence intensity generated by the binding of the antibody to the cell surface by a flow cytometer.

[4] = biological target: T4, human 4Ig-B7-H3-His protein (human, UniProt Q5ZPR3 29-466); assay: ELISA, plate coated with human 4Ig-B7-H3-His, detection with anti-human IgG HRP, OD450
T4 construct: also called human B7-H3 protein
T4 sequence: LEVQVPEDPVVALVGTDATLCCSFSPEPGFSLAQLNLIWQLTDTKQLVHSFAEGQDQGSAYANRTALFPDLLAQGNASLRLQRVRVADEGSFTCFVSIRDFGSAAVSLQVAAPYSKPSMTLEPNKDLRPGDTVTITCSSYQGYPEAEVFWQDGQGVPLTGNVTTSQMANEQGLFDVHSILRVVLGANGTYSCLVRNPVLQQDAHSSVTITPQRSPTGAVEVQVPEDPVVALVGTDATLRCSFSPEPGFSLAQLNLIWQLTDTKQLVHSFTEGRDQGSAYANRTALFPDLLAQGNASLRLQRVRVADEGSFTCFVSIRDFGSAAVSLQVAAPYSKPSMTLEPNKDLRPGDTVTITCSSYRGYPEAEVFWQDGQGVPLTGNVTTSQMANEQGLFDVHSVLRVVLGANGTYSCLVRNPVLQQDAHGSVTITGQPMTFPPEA
Method: as §1

[5] = biological target: T3, B7-H3 on surface of tumor cell (786-0, …); assay: FACS on MDA-MB-231 cells
Method: as §2

[6] = biological target: T3, B7-H3 on surface of tumor cell (786-0, …); assay: FACS on 786-0 cells
Method: as §2

[7] = biological target: T4, human 4Ig-B7-H3-His protein; assay: Biacore X100 SPR, 4Ig-B7-H3-His coupled to CM5 chip, antibody injected
Text: The humanized anti-B7-H3 antibodies prepared in Example 4 were subjected to affinity assay by Biacore. The antigen 4Ig-B7-H3-His was first coupled to the surface of a CM5 chip (GE, Cat. No. BR100012), and the active groups of the uncoupled protein were blocked with ethanolamine. After the baseline was stable, the hu39-01, hu65-13, and hBRCA84D antibodies were respectively diluted in equal proportions. The diluted antibodies of each concentration were placed on the sample injection tray of the instrument in sequence, and the program was set to inject samples respectively.

EC50 (read off the curve) [1]: ~0.005 µg/mL
EC50 (read off the curve) [2]: ~0.006 µg/mL
EC50 [3]: 0.12 µg/mL
Mean fluorescence intensity (MFI) [3]: 584000
EC50 (read off the curve) [4]: ~0.005 µg/mL
EC50 [5]: 0.0501 µg/mL
Mean fluorescence intensity (MFI) [5]: 156000
EC50 [6]: 0.12 µg/mL
Mean fluorescence intensity (MFI) [6]: 584000
Kd [7]: 0.49 nM
koff [7]: 0.000385 s⁻¹
kon [7]: 785000 M⁻¹ s⁻¹
B1: hu51-G34K-12 (antibody, human IgG1, V domains shown)
VH: EVQLVESGGGLVKPGGSLRLSCAASGFTFSSFGMSWVRQAPGKGLEWVATINSGDNYSYSPDSVKGRFTISRDNAKNSLYLQMNSLRAEDTAVYYCARPHIFYYGSPAWFAYWGQGTLVTVSS
VL: DVVMTQSPLSLPVTLGQPASISCRSRQSLVHSNKNTYLHWFQQRPGQSPRLLIYKVSNRFSGVPDRFSGSGSGTDFTLKISRVEAEDVGVYYCSQSTHVPLTFGGGTKVEIK
notes: expressed in HEK293E; also called humanized anti-B7-H3 antibody hu51-G34K-12
